3 molecules from patent publication US20090226437A1 (Genentech, published 2009) can be followed below.

The target in test [1] is T1, alpha4beta7 on 38C13 alpha4+ murine lymphoma cells transfected with integrin beta7 (38C13beta7 cells) (murine, UniProt Q00651 41-1039; P26011 20-806).
T1 construct: whole, on cells; also called 38C13-beta7 expressing cells; murine beta7-containing receptor
Nature of the test: cell adhesion inhibition, 38C13beta7 cells on coated muVCAM-1-Ig, experiment 1 of 2. On the procedure: (§1) RPMI8866/MAdCAM-1-Ig Cell Adhesion: RPMI8866 cells express alpha4beta7 on their surface (Roswell Park Memorial Institute, Buffalo, N.Y.). Humanized Fib504 variants (hu504 variants) were contacted with a mixture of RMPI8866 cells and MAdCAM fused to IgG coated on a solid support. […] After blocking the plates with 200 ul/well of 5 mg/ml BSA for one hour at room temperature, 50 μl of humanized Fib504 variants in assay media (RPMI 1640 media, Hyclone®, Logan Utah, USA, supplemented with 5 mg/mL BSA) were added to each well and 150,000 BCECF-labeled cells (BCECF, Molecular Probes, Eugene, Oreg.) in 50 μl of assay media were added to each well and incubated for 15 minutes at 37° C. The wells were washed two times with 150 μl of assay media to remove unbound cells. The bound cells were solubilized with 100 μl of 0.1% SDS in 50 mM Tris/HCl pH7.5. The amount of fluorescence released from lysed cells was measured by SPECTRAmax GEMINI™ (Molecular Devices, Sunnyvale, Calif.) at 485 nm excitation 530 nm emission wavelengths. The fluorescence values were analyzed as a function of the concentrations of the humanized Fib504 variants added in each assay, using a four-parameter nonlinear least squares fit, to obtain the IC₅₀ values of each humanized Fib504 variant in the assay. IC₅₀ and IC₉₀ values were estimated from the four-parameter fit. FIG. 14 is an exemplary plot of the results. The IC₉₀ and IC₅₀ values for each of the variants tested are shown below in Table 4.
(§2) 38C13beta7/muVCAM-1-Ig Cell Adhesion Assay: The 38C13beta7/muVCAM-1-Ig assay was performed according to the murine MAdCAM-1-Ig/RPMI8866 cell binding assay above, except that muVCAM-1-Ig (Genentech, Inc.) was used at 2 μg/ml to coat plates. (IC₅₀ and IC₉₀ values for 2 experiments are shown).

Test [2] has as its target T1, alpha4beta7 on 38C13 alpha4+ murine …. Nature of the test: cell adhesion inhibition, 38C13beta7 cells on coated muVCAM-1-Ig, experiment 2 of 2. The procedure: as §1, §2
Test [3] shares this target. Nature of the test: cell adhesion inhibition, 38C13beta7 cells on coated muMAdCAM-1-Ig, experiment 1 of 2. The procedure:
as §1
(§3) 38C13beta7/muMAdCAM-1-Ig Cell Adhesion Assay: The 38C13beta7/muMAdCAM-1-Ig assay was similar format to the RPMI8866/MAdCAM-1-Ig except that muMAdCAM-1-Ig (Genentech, Inc.) was used at 2 μg/ml to coat plates. 38C13 alpha4+ murine lymphoma cells (Crowe, D. T. et al., J. Biol. Chem. 269:14411-14418 (1994)) were transfected with DNA encoding integrin beta7 such that alpha4beta7 was expressed on the cell surface. The ability of the antibodies variants to disrupt interaction between the cell membrane associated alpha4beta7 and MAdCAM was performed as above.

The target is the same in test [4]. The experiment in a line: cell adhesion inhibition, 38C13beta7 cells on coated muMAdCAM-1-Ig, experiment 2 of 2. The procedure: as §1, §3
The target of test [5] is T2, alphaEbeta7 on alphaEbeta7-transfected 293 cells (human, UniProt P38570 19-1179; P26010 20-798).
T2 construct: whole, on cells; also called alphaEbeta7 293 cells
T2 sequence (P38570 19-1179, chain 1 of 2): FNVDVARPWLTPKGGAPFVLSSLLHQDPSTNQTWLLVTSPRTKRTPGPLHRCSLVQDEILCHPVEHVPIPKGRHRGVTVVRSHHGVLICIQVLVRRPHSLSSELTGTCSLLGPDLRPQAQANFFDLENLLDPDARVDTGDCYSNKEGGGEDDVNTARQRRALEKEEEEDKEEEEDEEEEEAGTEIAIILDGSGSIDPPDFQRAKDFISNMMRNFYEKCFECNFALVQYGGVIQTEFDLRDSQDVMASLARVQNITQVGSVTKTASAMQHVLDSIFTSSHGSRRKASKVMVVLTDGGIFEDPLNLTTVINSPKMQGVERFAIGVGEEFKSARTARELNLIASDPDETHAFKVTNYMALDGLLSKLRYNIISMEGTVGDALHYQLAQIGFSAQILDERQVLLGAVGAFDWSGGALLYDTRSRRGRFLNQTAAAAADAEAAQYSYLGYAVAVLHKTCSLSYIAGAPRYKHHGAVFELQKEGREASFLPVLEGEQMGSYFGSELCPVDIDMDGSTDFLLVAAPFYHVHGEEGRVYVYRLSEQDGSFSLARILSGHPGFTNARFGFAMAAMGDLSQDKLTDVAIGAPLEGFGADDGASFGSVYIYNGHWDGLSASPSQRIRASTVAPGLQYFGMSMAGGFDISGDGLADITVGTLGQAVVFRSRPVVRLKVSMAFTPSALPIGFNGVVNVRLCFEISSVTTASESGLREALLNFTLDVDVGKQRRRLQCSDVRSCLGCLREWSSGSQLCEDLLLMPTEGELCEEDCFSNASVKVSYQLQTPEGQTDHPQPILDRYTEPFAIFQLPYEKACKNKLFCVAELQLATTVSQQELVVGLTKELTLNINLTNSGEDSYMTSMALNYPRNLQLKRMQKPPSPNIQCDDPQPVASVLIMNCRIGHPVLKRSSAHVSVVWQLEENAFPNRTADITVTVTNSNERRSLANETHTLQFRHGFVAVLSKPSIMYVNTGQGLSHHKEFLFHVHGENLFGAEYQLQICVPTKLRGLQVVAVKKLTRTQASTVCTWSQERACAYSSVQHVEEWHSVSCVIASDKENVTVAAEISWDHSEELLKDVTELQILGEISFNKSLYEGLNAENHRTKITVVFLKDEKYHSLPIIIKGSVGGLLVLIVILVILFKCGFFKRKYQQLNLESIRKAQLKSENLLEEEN
T2 sequence (P26010 20-798, chain 2 of 2): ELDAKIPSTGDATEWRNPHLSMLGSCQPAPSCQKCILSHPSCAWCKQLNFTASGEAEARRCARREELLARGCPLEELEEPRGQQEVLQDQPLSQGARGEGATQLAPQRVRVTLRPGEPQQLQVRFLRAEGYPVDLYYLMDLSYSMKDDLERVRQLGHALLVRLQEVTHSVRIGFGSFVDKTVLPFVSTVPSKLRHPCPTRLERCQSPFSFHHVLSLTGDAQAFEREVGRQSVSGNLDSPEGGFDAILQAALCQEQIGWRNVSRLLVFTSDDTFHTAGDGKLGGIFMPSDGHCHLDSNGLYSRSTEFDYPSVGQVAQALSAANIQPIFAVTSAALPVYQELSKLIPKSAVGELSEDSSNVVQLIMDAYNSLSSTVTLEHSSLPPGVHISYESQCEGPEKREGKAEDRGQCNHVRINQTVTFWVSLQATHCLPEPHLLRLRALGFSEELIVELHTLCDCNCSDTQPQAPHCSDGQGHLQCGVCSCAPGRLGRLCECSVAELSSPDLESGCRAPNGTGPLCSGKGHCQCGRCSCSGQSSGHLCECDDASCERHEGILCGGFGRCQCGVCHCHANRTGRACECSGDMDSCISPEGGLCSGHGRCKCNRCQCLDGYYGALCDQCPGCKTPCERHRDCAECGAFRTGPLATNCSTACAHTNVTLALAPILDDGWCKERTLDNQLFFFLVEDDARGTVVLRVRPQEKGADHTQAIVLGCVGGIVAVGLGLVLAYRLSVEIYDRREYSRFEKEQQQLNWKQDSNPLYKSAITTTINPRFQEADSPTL
The experiment in a line: cell adhesion inhibition, alphaEbeta7 293 cells on coated huE-Cadherin, experiment 1 of 3. The procedure: (§4) After blocking the plates with 200 ul/well of 5 mg/ml BSA for one hour at room temperature, 50 μl of humanized Fib504 variants in assay media (RPMI 1640 media, Hyclone®, Logan Utah, USA, supplemented with 5 mg/mL BSA) were added to each well and 150,000 BCECF-labeled cells (BCECF, Molecular Probes, Eugene, Oreg.) in 50 μl of assay media were added to each well and incubated for 15 minutes at 37° C. The wells were washed two times with 150 μl of assay media to remove unbound cells. The bound cells were solubilized with 100 μl of 0.1% SDS in 50 mM Tris/HCl pH7.5. The amount of fluorescence released from lysed cells was measured by SPECTRAmax GEMINI™ (Molecular Devices, Sunnyvale, Calif.) at 485 nm excitation 530 nm emission wavelengths. The fluorescence values were analyzed as a function of the concentrations of the humanized Fib504 variants added in each assay, using a four-parameter nonlinear least squares fit, to obtain the IC₅₀ values of each humanized Fib504 variant in the assay. IC₅₀ and IC₉₀ values were estimated from the four-parameter fit. FIG. 14 is an exemplary plot of the results. The IC₉₀ and IC₅₀ values for each of the variants tested are shown below in Table 4.
(§5) The assay format is similar to the RPMI8866/MAdCAM-1-Ig assay except that the huE-Cadherin (648-EC, R&D Systems, Minneapolis, Minn.) was used at 2 μg/ml to coat the plates. Plates were then blocked with 5 mg/ml BSA as mentioned above and 50 μl of FIB504 variants in assay media (F-12:DMEM (50:50) supplemented with 5 mg/ml BSA) were add to each well and 110,000 BCECF labeled cells in 50 ul of assay media were added to each well and incubated for 15 minutes at 37° C. The wells were washed two times with 150 μl of assay media and the amount of fluorescence released by lysed cells was measured and analyzed as described above.

In test [6] the target is T2, alphaEbeta7 on alphaEbeta7-transfected …. The experiment in a line: cell adhesion inhibition, alphaEbeta7 293 cells on coated huE-Cadherin, experiment 2 of 3. The procedure:
as §4, §5

For test [7] the target is unchanged. Nature of the test: cell adhesion inhibition, alphaEbeta7 293 cells on coated huE-Cadherin, experiment 3 of 3. The procedure: as §4, §5
The target of test [8] is T3, human alpha4beta7 receptor on RPMI8866 cells (human, UniProt P13612 34-1032; P26010 20-798).
T3 construct: whole, on cells; also called alpha4beta7 on RPMI8866
T3 sequence (P13612 34-1032, chain 1 of 2): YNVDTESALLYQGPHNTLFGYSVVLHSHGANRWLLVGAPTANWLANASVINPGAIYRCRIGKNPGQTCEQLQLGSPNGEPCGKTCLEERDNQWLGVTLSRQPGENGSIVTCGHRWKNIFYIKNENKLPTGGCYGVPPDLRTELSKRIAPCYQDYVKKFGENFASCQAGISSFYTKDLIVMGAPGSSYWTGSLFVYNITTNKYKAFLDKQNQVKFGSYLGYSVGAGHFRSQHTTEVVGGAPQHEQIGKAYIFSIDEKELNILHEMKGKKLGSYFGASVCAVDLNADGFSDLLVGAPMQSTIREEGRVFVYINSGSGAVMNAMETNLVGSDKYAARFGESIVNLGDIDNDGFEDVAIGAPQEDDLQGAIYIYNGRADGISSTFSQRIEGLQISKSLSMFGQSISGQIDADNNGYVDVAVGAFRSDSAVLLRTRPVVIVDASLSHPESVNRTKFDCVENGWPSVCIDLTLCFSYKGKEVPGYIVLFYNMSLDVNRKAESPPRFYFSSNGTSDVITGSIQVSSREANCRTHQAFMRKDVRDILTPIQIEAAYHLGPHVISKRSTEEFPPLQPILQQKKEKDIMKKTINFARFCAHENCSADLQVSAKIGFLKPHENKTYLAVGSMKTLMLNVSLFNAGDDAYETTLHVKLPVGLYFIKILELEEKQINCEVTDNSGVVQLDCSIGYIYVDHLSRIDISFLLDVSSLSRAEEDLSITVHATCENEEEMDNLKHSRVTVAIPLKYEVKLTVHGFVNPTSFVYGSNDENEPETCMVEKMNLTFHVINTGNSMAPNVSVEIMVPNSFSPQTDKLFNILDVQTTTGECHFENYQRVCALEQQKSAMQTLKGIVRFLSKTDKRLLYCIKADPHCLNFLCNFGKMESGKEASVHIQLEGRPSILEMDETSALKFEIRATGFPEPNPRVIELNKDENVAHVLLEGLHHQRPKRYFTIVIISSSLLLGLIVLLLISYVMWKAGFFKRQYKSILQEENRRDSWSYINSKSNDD
T3 sequence (P26010 20-798, chain 2 of 2): as the sequence (P26010 20-798, chain 2 of 2) above
The experiment in a line: cell adhesion inhibition, RPMI8866 cells on coated 7dVCAM-1, Exp 1. The procedure:
as §1
(§6) RPMI8866/7dVCAM-1 Cell Adhesion: The RPMI8866/7dVCAM-1 assay is similar format to the RPMI8866/MAdCAM-1-Ig except that 7dVCAM-1 (ADP5, R&D Systems, Minneapolis, Minn.) was used at 2 ug/ml to coat plates. The results were analyzed as described above for the MAdCAM binding experiments. The IC₅₀ values for each of the variants tested are shown below in Table 5.

For test [9], the target named is T3, human alpha4beta7 receptor on RPMI8866 …. Nature of the test: cell adhesion inhibition, RPMI8866 cells on coated 7dVCAM-1, Exp 2. On the procedure: as §1, §6
Test [10] has the same target. The experiment in a line: cell adhesion inhibition, RPMI8866 cells on coated MAdCAM-1-Ig, Exp 1. The procedure:
as §1

Test [11] has the same target. Nature of the test: cell adhesion inhibition, RPMI8866 cells on coated MAdCAM-1-Ig, Exp 2. The procedure:
as §1

T1 sequence (Q00651 41-1039, chain 1 of 2): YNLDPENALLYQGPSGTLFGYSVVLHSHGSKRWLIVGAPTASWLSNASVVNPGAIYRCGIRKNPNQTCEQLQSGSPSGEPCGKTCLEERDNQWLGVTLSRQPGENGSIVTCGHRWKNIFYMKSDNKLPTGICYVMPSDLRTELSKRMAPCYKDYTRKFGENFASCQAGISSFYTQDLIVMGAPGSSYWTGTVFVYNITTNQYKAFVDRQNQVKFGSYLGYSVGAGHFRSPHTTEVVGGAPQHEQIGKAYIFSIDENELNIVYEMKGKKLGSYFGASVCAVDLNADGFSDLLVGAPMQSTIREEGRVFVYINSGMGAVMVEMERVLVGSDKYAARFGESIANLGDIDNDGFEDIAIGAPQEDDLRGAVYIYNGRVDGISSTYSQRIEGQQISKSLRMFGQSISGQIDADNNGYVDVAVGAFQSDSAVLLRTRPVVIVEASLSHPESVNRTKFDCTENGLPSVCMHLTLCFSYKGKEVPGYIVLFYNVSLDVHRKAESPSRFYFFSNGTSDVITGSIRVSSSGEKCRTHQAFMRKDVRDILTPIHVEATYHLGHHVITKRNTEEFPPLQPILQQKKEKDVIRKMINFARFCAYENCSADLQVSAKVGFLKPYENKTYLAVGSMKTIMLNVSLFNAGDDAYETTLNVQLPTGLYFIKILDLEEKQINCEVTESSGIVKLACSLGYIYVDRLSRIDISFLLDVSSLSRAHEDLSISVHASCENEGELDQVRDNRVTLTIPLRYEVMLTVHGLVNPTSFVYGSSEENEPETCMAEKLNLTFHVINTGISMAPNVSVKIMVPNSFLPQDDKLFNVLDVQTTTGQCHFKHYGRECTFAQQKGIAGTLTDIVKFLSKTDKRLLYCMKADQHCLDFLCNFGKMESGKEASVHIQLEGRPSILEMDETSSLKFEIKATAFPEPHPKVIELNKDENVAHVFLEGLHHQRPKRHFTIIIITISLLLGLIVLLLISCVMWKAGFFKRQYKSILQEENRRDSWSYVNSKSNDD
T1 sequence (P26011 20-806, chain 2 of 2): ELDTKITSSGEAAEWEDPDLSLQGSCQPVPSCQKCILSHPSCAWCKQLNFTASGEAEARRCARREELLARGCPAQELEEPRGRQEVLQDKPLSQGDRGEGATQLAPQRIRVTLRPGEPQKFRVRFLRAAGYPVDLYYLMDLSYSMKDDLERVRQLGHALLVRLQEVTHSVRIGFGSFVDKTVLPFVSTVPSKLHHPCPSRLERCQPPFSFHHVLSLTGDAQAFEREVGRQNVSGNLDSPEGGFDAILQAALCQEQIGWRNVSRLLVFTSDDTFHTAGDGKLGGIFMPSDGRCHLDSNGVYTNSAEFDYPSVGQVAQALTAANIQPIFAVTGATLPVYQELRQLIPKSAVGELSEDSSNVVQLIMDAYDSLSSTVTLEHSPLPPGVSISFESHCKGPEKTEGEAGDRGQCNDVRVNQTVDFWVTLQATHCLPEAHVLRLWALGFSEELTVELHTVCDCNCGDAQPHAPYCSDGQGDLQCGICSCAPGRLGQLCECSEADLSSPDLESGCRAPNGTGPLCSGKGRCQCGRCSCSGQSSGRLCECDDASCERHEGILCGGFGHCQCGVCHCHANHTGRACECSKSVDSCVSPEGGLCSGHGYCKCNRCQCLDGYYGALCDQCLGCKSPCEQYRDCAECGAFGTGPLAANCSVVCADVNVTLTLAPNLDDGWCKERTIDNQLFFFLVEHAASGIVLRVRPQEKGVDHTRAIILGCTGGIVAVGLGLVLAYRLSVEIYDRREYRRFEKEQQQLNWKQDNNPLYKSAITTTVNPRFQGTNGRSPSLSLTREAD

B1: Variant hu504.32, IgG (antibody, V domains shown)
VH: EVQLVESGGGLVQPGGSLRLSCAASGFFITNNYWGWVRQAPGKGLEWVGYISYSGSTSYNPSLKSRFTISRDTSKNTFYLQMNSLRAEDTAVYYCAMTGSSGYFDFWGQGTLVTVSS
VL: DIQMTQSPSSLSASVGDRVTITCRASESVDDLLHWYQQKPGKAPKLLIKYASQSISGVPSRFSGSGSGTDFTLTISSLQPEDFATYYCQQGNSLPNTFGQGTKVEIKR
notes: methionine at heavy chain position 94; also called hu504.32M; 504.32M
In the case of B1, the IC50 (as a rule, the concentration needed to halve the response being measured) in [1] was 0.562 nM; in test [2] it was 0.33 nM; in test [3], 0.718 nM; in test [4] it was 0.458 nM; in test [5] it was 1.81 nM; in [6] it was 6.99 nM. Also, half-maximal inhibition in test [7] (IC50) required 3.47 nM. The IC90 – broadly, the concentration needed for an effect of 90% – in test [1] came to 2 nM; in test [2], 1.84 nM; in [3] it was 4.08 nM; in test [4], 1.51 nM; in test [5] it was 8.8 nM; in [6], 24.5 nM. In test [7], it took 11.7 nM to reach the 90% level (IC90).

B2: Variant hu504.5, IgG (antibody, name in Kabat numbering, V domains shown)
VH: EVQLVESGGGLVQPGGSLRLSCAASGFFITNNYWGWVRQAPGKGLEWVGYISYSGSTSYNPSLKSRFTISRDTSKNTFYLQMNSLRAEDTAVYYCAMTGSSGYFDFWGQGTLVTVSS
VL: DIQMTQSPSSLSASVGDRVTITCRASESVDSLLHWYQQKPGKAPKLLIKYASQSISGVPSRFSGSGSGTDFTLTISSLQPEDFATYYCQQGNSLPNTFGQGTKVEIKR
For the molecule B2, the IC50 is 0.088 nM in [8]; 0.27 nM in [9]; 0.067 nM in test [10]; 0.248 nM in test [11]; 0.763 nM in test [1]; 0.407 nM in test [2]. For the same molecule, the IC50 in test [3] came out at 0.859 nM; in test [4], 0.466 nM; in test [5], 2.13 nM; in test [6], 10.2 nM; in test [7], 4.77 nM. Moreover, the concentration for an effect of 90% (IC90) in test [8] was 0.396 nM; in test [9], 0.726 nM; in test [10], 0.361 nM; in test [11], 0.88 nM; in test [1] it was 3.07 nM; in [2], 2.3 nM. Besides, the 90% effect concentration (IC90) in test [3] came out at 2.32 nM; in test [4], 2.61 nM; in [5], 7.99 nM; in [6], 28.7 nM; in test [7] it was 10.2 nM.

B3: Rat Fib504 (antibody FIB504.64 produced by hybridoma ATCC HB-293) (antibody, V domains shown)
VH: EVQLQESGPGLVKPSQSLSLTCSVTGFFITNNYWGWIRKFPGNKMEWMGYISYSGSTSYNPSLKSRISITRDTSKNQFFLQLNSVTTEDTATYYCAMTGSSGYFDFWGPGTMVTVSS
VL: DVVMTQSPATLSVTPGERISLSCRASESVDTYLHWYQQKPNESPRLLIKYASQSISGIPSRFSGSGSGTDFTLSINGVELEDLSIYYCQQGNSLPNTFGAGTKLELKR
notes: Whole rat antibody in the cell adhesion assays; also called rat anti-mouse beta7 antibody
B3: the 50% inhibitory concentration (IC50) in test [8] is 0.107 nM; in test [9], 0.193 nM; in test [10], 0.098 nM; in test [11] it was 0.197 nM; in [1], 0.845 nM; in test [2] it was 0.447 nM. Further, the concentration for half-maximal inhibition (IC50) turned out to be 0.682 nM in [3]; 0.306 nM in test [4]; 2.05 nM in test [5]; 7.89 nM in test [6]; 4.19 nM in [7]. In addition, the IC90 in [8] was determined as 0.396 nM; in [9], 0.58 nM; in [10], 0.483 nM; in [11] it was 0.703 nM; in [1], 2.9 nM; in test [2] it was 2.3 nM. The IC90 in test [3] worked out at 2.87 nM; in [4] it was 1.51 nM; in test [5], 8.8 nM; in test [6] it was 24.5 nM; in test [7], 9.95 nM.
